Source: paper PMC11757908

Biological target: trastuzumab (human)
Test: charge-stabilized self-interaction nanoparticle spectroscopy

- CS-SINS score: 0.1
Substance: trastuzumab (antibody)
